Several values for one entry are separate records, joined by “and”; a condition that tells them apart may be missing. Equal values may be shown once.
Key:
[1] = biological target: VPE2LS2…2TREQNRIC; test: peptide-array ELISA
[2] = biological target: LWNWVPE2…; test: peptide-array ELISA
[3] = biological target: VPE2LS2…2RP; test: peptide-array ELISA
[4] = biological target: PE2LS2…2RP; test: peptide-array ELISA
[5] = biological target: …2KP2…2…; test: peptide-array ELISA [Con't]
[6] = biological target: SCGSR2…; test: peptide-array ELISA [Con't]
[7] = biological target: …2KCAPLRK2…; test: peptide-array ELISA [Con't]
[8] = biological target: …2RLCQA2TREQNRI2T2RPC; test: peptide-array ELISA [Con't]
[9] = biological target: E2LSCGSR2…2T2; test: peptide-array ELISA [Con't]
[10] = biological target: EGCRL2…2…; test: peptide-array ELISA [Con't]
[11] = biological target: CGSR2…; test: peptide-array ELISA [Con't]
[12] = biological target: ALSKQEG2…2APGTFSN; test: peptide-array ELISA [Con't]
[13] = biological target: …2…; test: peptide-array ELISA [Con't]
[14] = biological target: …2TSTSPTRC; test: peptide-array ELISA [Con't]
[15] = biological target: CGWY2ALSKQEG2RL2CNASMDAV2TSTSPTRC; test: peptide-array ELISA [Con't]
[16] = biological target: QNRI2…2RL; test: peptide-array ELISA [Con't]
[17] = biological target: CDQVETQA2…2TREQNRI2T2RPC; test: peptide-array ELISA [Con't]
[18] = biological target: CLSKQEG2RL2…22SK2C; test: peptide-array ELISA [Con't]
[19] = biological target: …2SK2SPGQ; test: peptide-array ELISA [Con't]
[20] = biological target: …2…2TSTSPTRC; test: peptide-array ELISA [Con't]

LWNWVPE2…, sequence (peptide, as listed by the source): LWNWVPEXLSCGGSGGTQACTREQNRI
SCGSR2…, sequence (peptide, as listed by the source): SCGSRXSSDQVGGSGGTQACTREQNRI
…2…, sequence (peptide, as listed by the source): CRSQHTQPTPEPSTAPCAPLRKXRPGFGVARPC
CGSR2…, sequence (peptide, as listed by the source): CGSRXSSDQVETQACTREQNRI
…2TSTSPTRC, sequence (peptide, as listed by the source): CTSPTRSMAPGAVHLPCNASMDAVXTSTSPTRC

agonistic TNFR2 antibody MR2-1
Raw luminescence data [1]: 399 | Raw luminescence data [2]: 400 | Raw luminescence data [3]: 410 | Raw luminescence data [4]: 483 | Raw luminescence data [5]: 150 | Raw luminescence data [6]: 155 | Raw luminescence data [7]: 151 | Raw luminescence data [8]: 150 | Raw luminescence data [9]: 153 | Raw luminescence data [10]: 155 | Raw luminescence data [11]: 153 | Raw luminescence data [12]: 151 | Raw luminescence data [13]: 155 | Raw luminescence data [14]: 154 | Raw luminescence data [15]: 156 | Raw luminescence data [16]: 151 | Raw luminescence data [17]: 154 | Raw luminescence data [18]: 156 | Raw luminescence data [19]: 156 and 153 | Raw luminescence data [20]: 156
